In patent US20250352667A1:

Tests used:
[1] = target: KEAP1 (wild-type full-length), His-tagged (human) (UniProt Q14145); experiment: AlphaScreen; 38.4 nM FLAG-NRF2, 150 nM His-KEAP1; Repeat 1 (same value as in Table 23)
[2] = target: KEAP1 (wild-type full-length), His-tagged (human) (UniProt Q14145); experiment: AlphaScreen; standard deviation of three conditions; against wild-type NRF2 isoform 2
[3] = target: KEAP1 (wild-type full-length), His-tagged (human) (UniProt Q14145); experiment: AlphaScreen; 19.2 nM FLAG-NRF2, 150 nM His-KEAP1 (same value as in Table 23)
[4] = target: KEAP1 (wild-type full-length), His-tagged (human) (UniProt Q14145); experiment: AlphaScreen; 9.6 nM FLAG-NRF2, 150 nM His-KEAP1; against wild-type NRF2 isoform 2 = 100%
[5] = target: KEAP1 (wild-type full-length), His-tagged (human) (UniProt Q14145); experiment: AlphaScreen; 19.2 nM FLAG-NRF2, 150 nM His-KEAP1; Repeat 2 (same value as in Table 23)
[6] = target: KEAP1 (wild-type full-length), His-tagged (human) (UniProt Q14145); experiment: AlphaScreen; mean over 9.6, 19.2 and 38.4 nM NRF2; 150 nM His-KEAP1
[7] = target: KEAP1 (wild-type full-length), His-tagged (human) (UniProt Q14145); experiment: AlphaScreen; 9.6 nM FLAG-NRF2, 150 nM His-KEAP1; Repeat 1 (same value as in Table 22)
[8] = target: KEAP1 (wild-type full-length), His-tagged (human) (UniProt Q14145); experiment: AlphaScreen, all variants on one plate; lower condition (9.6 nM NRF2), KEAP1 150 nM; the reference itself
[9] = target: KEAP1 (wild-type full-length), His-tagged (human) (UniProt Q14145); experiment: AlphaScreen; 19.2 nM FLAG-NRF2, 150 nM His-KEAP1; Repeat 2 (same value as in Table 22)
[10] = target: KEAP1 (wild-type full-length), His-tagged (human) (UniProt Q14145); experiment: AlphaScreen, all variants on one plate; optimal condition (19.2 nM NRF2), KEAP1 150 nM; the reference itself
[11] = target: KEAP1 (wild-type full-length), His-tagged (human) (UniProt Q14145); experiment: AlphaScreen; 38.4 nM FLAG-NRF2, 150 nM His-KEAP1; Repeat 2 (same value as in Table 22)
[12] = target: KEAP1 (wild-type full-length), His-tagged (human) (UniProt Q14145); experiment: AlphaScreen; 38.4 nM FLAG-NRF2, 150 nM His-KEAP1; Repeat 1 (same value as in Table 22)

Sequence of KEAP1 (wild-type full-length), His-tagged (human) (Q14145 2-624 limits assumed, form in doubt): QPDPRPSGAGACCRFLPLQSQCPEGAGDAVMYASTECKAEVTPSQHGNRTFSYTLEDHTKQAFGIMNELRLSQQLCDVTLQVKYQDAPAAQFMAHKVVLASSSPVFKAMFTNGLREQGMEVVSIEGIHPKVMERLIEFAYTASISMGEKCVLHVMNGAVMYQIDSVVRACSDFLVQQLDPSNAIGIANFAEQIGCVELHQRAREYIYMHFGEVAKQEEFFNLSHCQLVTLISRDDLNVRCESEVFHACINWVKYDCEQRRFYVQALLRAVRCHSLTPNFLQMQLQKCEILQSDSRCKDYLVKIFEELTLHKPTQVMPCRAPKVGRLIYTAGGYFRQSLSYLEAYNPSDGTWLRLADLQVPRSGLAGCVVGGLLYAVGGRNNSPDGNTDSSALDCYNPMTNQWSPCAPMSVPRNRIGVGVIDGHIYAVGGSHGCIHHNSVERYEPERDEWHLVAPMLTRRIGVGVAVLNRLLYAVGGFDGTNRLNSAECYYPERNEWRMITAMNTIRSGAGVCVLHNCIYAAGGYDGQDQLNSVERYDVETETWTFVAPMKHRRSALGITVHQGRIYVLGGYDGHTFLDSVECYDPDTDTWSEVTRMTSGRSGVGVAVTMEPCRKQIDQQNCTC

| A-counts [1] [A-counts] | Reported Value (standard deviation of reduction in binding) [2] [%] | S/N [3] | Binding Percentage (%) [4] [%] | A-counts [5] [A-counts] | Average Binding [6] [%] | A-counts [7] [A-counts] | % Disruption in Binding [8] [%] | A-counts [9] [A-counts] | % Disruption in Binding [10] [%] | A-counts [11] [A-counts] | A-counts [12] [A-counts] | Substance |
| --- | --- | --- | --- | --- | --- | --- | --- | --- | --- | --- | --- | --- |
| 2120 | 10.2 | 1.8 | 35.7 | 1950 |  |  |  |  |  |  |  | NRF2 isoform 2 (E63G/E66G full-length), FLAG-tagged |
|  |  |  |  |  | 100 | 2310 | 0 | 3260 | 0 | 3460 | 3470 | NRF2 isoform 2 (wild-type full-length), FLAG-tagged |
